Results: patent publication US20210395718A1, “NOVEL KETOSE 3-EPIMERASE” (NATIONAL UNIVERSITY CORPORATION KAGAWA UNIVERSITY, priority 2018, published 2021)

How the values were obtained:
Assay type in all cases: biochemical
[1] = Ketose 3-epimerase activity of crude enzyme (D-allulose to D-fructose, HPLC); details: crude recombinant enzyme
Method: The activity of an enzyme ketose 3-epimerase before purification was obtained by measuring the preparation amount of D-fructose with D-allulose as a substrate. More specifically, an enzymatic reaction solution composed of a 50 mM tris-HCl buffer (pH 7.5), 0.1 M D-allulose, an enzyme solution, and 2 mM magnesium chloride is reacted at 70° C. for 10 minutes. The reaction mixture is boiled for 2 minutes to terminate the reaction and the solution composition after the reaction is measured by HPLC. One unit of enzyme activity is defined as an enzyme amount that epimerizes D-allulose to prepare 1 μmol of D-fructose per minute under the above-described conditions. An enzyme unit for epimerization of D-fructose into D-allulose, which is a reverse reaction, is also measured under similar conditions and defined similarly.
For the measurement of the activity of a ketose 3-epimerase as a crude enzyme and a purified enzyme, an enzyme reaction was made by performing an experiment similar to Experiment 4. An enzyme reaction was made for 10 minutes under various conditions and an enzyme amount preparing 1 μmol of D-fructose from D-allulose per minute was defined as 1 unit. After the reaction, the reaction mixture was put in a boiling liquid for 3 minutes to terminate the reaction. After deionization treatment, the D-fructose thus prepared was measured by HPLC analysis. […]

[2] = Optimum reaction temperature / relative activity at various reaction temperatures; details: crude recombinant enzyme
Method: For the measurement of the activity of a ketose 3-epimerase as a crude enzyme and a purified enzyme, an enzyme reaction was made by performing an experiment similar to Experiment 4. An enzyme reaction was made for 10 minutes under various conditions and an enzyme amount preparing 1 μmol of D-fructose from D-allulose per minute was defined as 1 unit. After the reaction, the reaction mixture was put in a boiling liquid for 3 minutes to terminate the reaction. After deionization treatment, the D-fructose thus prepared was measured by HPLC analysis.
Reaction conditions are shown in Table 1 under which the reaction was made at various temperatures within from 50 to 80° C. to find an optimum temperature.

[3] = Thermal stability: residual activity after incubation at 60° C. for one hour; details: crude recombinant enzyme; activity at 60° C. (10 min reaction) = 100; unit not given
Summary of the method: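 Crude recombinant enzyme held 1 h at 60 °C in 50 mM tris-HCl pH 7.5 with 2 mM MgCl2, chilled 10 min on ice, then residual activity measured by the standard method. Expressed relative to activity at 60 °C under the 10-min optimum-temperature reaction conditions, set as 100.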

[4] = Ketose 3-epimerase activity ratio (T70/T50) at reaction temperature of 70° C. to 50° C.; details: crude recombinant enzyme; ratio of activity at 70° C. to activity at 50° C., 10 min reaction
Summary of the method: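 Crude recombinant enzyme activity measured at 70° C. and at 50° C. in 10-minute reactions under the optimum-temperature assay conditions. Value is the ratio of the two activities (T70/T50).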

[5] = activity at optimum temperature = 100

Total activity per 100 mL of culture liquid (optimum reaction temperature) [1]: 1201 U
Optimum enzyme reaction temperature ([2]; 10 min, 2 mM magnesium chloride, pH 7.5): 70° ° C.
B1: Mutant enzyme Sequence information 3: mutant having Sequence 3 (SEQ ID NO: 3), 78.5% amino acid sequence identity to Sequence 1 (protein)
chain: MNIGCHGLVWTGTFDADGIRLAVEKTKQAGFDLIEFPLMDPFSFDVAAAQAALAEHGLAVSASLGLSDETDITSSDPAVVAAGEALLLRAVDVLAELGGTHFCGVIYSAMKKYMDPVTPEGLASSRRTIARVADHAAERGVSVSLEVVNRYETNVLNTARQALAYLGEVDRPNLGIHLDTYHMNIEESDMFAPVLDAAPALRYVHIGESHRGYLGTGTVDFDTFFKALGRIGYDGPIVFESFSSAVVAPDLSRMLGIWRNLWTDNDELGAHANAYIRDKLVAVDSIRLH
Relative activity at 60° C. (%) [2, 5]: 75.8%
Relative activity at 70° C. (%) [2, 5]: 100.0%
Relative activity at 80° C. (%) [2, 5]: 31.2%
Residual activity after incubation at 60° C. for 1 hour [3]: 38.2
T70/T50 [4]: 2.11
